# Laboratory results from US11278600B2, “Human alpha-galactosidase variants” (Codexis, Inc., priority 2014, dated 2022).
# Positions count from the first letter of the chain named.
# B1: 101 (protein)
# chain: LDNGLARTPTMGWLHWERFMCNLDCQEEPDSCISEKLFMEMAELMVSEGWKDAGYEYLCIDDCWMAPQRDSEGRLQADPQRFPHGIRQLANYVHSKGLKLGIYADVGNKTCAGFPGSFGYYDIDAQTFADWGVDLLKFDGCYCDSLENLADGYKHMSLALNRTGRSIVYSCEWPLYMWPFQKPNYTEIRQYCNHWRNFADIDDSWKSIKSILDWTSFNQERIVDVAGPGGWNDPDMLVIGNFGLSWNQQVTQMALWAIMAAPLFMSNDLRHISPQAKALLQDKDVIAINQDPLGKQGYQLRQGDNFEVWERPLSGDAWAVAMINRQEIGGPRSYTIAVASLGKGVACNPACFITQLLPVKRKLGFYEWTSRLRSHINPTGTVLLQLENTMQMSKDLLL
# modifications: Synthetic Polypeptide sequence of Variant No. 101 of mature Human GLA
# B2: 105 (protein)
# chain: B1 chain with D316L, K394A
# modifications: Synthetic Polypeptide sequence of Variant No. 105 of mature Human GLA
# B3: 107 (protein)
# chain: B1 chain with D316L, K394S
# modifications: Synthetic Polypeptide sequence of Variant No. 107 of mature Human GLA
# B4: 113 (protein)
# chain: B1 chain with D316L, L397Q
# modifications: Synthetic Polypeptide sequence of Variant No. 113 of mature Human GLA
# B5: 108 (protein)
# chain: B1 chain with D316L, K394T
# modifications: Synthetic Polypeptide sequence of Variant No. 108 of mature Human GLA
# B6: 34 (protein)
# chain: B1 chain with D316L, A337P
# modifications: Synthetic Polypeptide sequence of Variant No. 34 of mature Human GLA
# B7: 106 (protein)
# chain: B1 chain with D316L, K394R
# modifications: Synthetic Polypeptide sequence of Variant No. 106 of mature Human GLA
# B8: 110 (protein)
# chain: B1 chain with D316L, L397D
# modifications: Synthetic Polypeptide sequence of Variant No. 110 of mature Human GLA
# B9: 103 (protein)
# chain: B1 chain with D316L, L384F
# modifications: Synthetic Polypeptide sequence of Variant No. 103 of mature Human GLA
# B10: 112 (protein)
# chain: B1 chain with D316L, L397I
# modifications: Synthetic Polypeptide sequence of Variant No. 112 of mature Human GLA
# B11: 114 (protein)
# chain: B1 chain with D316L, L397R
# modifications: Synthetic Polypeptide sequence of Variant No. 114 of mature Human GLA
# B12: 102 (protein)
# chain: B1 chain with D316E
# modifications: Synthetic Polypeptide sequence of Variant No. 102 of mature Human GLA
# B13: 104 (protein)
# chain: B1 chain with D316L, L386V
# modifications: Synthetic Polypeptide sequence of Variant No. 104 of mature Human GLA
# B14: 33 (protein)
# chain: B1 chain with A199H, D316L, E367S
# modifications: Synthetic Polypeptide sequence of Variant No. 33 of mature Human GLA
# B15: 111 (protein)
# chain: B1 chain with D316L, L397H
# modifications: Synthetic Polypeptide sequence of Variant No. 111 of mature Human GLA
# B16: 115 (protein)
# chain: B1 chain with D316L, L397T
# modifications: Synthetic Polypeptide sequence of Variant No. 115 of mature Human GLA
# Assay: HTP-analysis of yeast culture supernatants, no challenge (MUGal hydrolysis)
# Assay type: biochemical
# Conditions: activity of the variant/activity of WT GLA (SEQ ID NO: 5), yeast supernatant
# Summary of the method: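 GLA variants were expressed in INVSc1 yeast grown in SD-Ura broth with glucose at 30° C., and culture supernatants were collected after 66-84 h. Supernatant was mixed with McIlvaine buffer pH 4.8 and MUGal (2 mM stock) in 50 mM citrate, 200 mM KCl, pH 4.6, incubated at 37° C. for 30-180 minutes, then quenched with sodium carbonate.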
row,Molecule,Relative Activity of GLA Variants After No Challenge (NC)
1,B1,+++ (+++ = >2.5 relative activity over WT GLA (SEQ ID NO: 5))
2,B2,+++ (+++ = >2.5 relative activity over WT GLA (SEQ ID NO: 5))
3,B3,+++ (+++ = >2.5 relative activity over WT GLA (SEQ ID NO: 5))
4,B4,++ (++ = >1.5 to 2.5 relative activity over WT GLA (SEQ ID NO: 5))
5,B5,+++ (+++ = >2.5 relative activity over WT GLA (SEQ ID NO: 5))
6,B6,+ (+ = 0.5 to 1.5 relative activity over WT GLA (SEQ ID NO: 5))
7,B7,++ (++ = >1.5 to 2.5 relative activity over WT GLA (SEQ ID NO: 5))
8,B8,+++ (+++ = >2.5 relative activity over WT GLA (SEQ ID NO: 5))
9,B9,++ (++ = >1.5 to 2.5 relative activity over WT GLA (SEQ ID NO: 5))
10,B10,+ (+ = 0.5 to 1.5 relative activity over WT GLA (SEQ ID NO: 5))
11,B11,++ (++ = >1.5 to 2.5 relative activity over WT GLA (SEQ ID NO: 5))
12,B12,+++ (+++ = >2.5 relative activity over WT GLA (SEQ ID NO: 5))
13,B13,++ (++ = >1.5 to 2.5 relative activity over WT GLA (SEQ ID NO: 5))
14,B14,+ (+ = 0.5 to 1.5 relative activity over WT GLA (SEQ ID NO: 5))
15,B15,++ (++ = >1.5 to 2.5 relative activity over WT GLA (SEQ ID NO: 5))
16,B16,++ (++ = >1.5 to 2.5 relative activity over WT GLA (SEQ ID NO: 5))

# Assay: HTP-analysis of supernatants pretreated with acid (MUGal hydrolysis)
# Assay type: biochemical
# Conditions: challenge at pH 4.2; activity of the variant/activity of WT GLA (SEQ ID NO: 5); yeast supernatant
# Summary of the method: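 MUGal hydrolysis was tracked by fluorescence (Ex 355 nm, Em 448 nm) after a 30-180 min reaction at 37° C. in pH 4.8 McIlvaine/citrate buffer, stopped with 1 M sodium carbonate. Beforehand, yeast (INVSc1) culture supernatants carrying GLA variants were held 1-3 h at 37° C. in acidic McIlvaine buffer, pH 3.3-4.3.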
row,Molecule,Relative Activity of GLA Variants After Challenge at pH 4.2
1,B1,+++ (+++ = >2.5 relative activity over WT GLA (SEQ ID NO: 5))
2,B2,++ (++ = >1.5 to 2.5 relative activity over WT GLA (SEQ ID NO: 5))
3,B3,+++ (+++ = >2.5 relative activity over WT GLA (SEQ ID NO: 5))
4,B4,+ (+ = 0.5 to 1.5 relative activity over WT GLA (SEQ ID NO: 5))
5,B5,+++ (+++ = >2.5 relative activity over WT GLA (SEQ ID NO: 5))
6,B6,++ (++ = >1.5 to 2.5 relative activity over WT GLA (SEQ ID NO: 5))
7,B7,++ (++ = >1.5 to 2.5 relative activity over WT GLA (SEQ ID NO: 5))
8,B8,++ (++ = >1.5 to 2.5 relative activity over WT GLA (SEQ ID NO: 5))
9,B9,++ (++ = >1.5 to 2.5 relative activity over WT GLA (SEQ ID NO: 5))
10,B10,++ (++ = >1.5 to 2.5 relative activity over WT GLA (SEQ ID NO: 5))
11,B11,++ (++ = >1.5 to 2.5 relative activity over WT GLA (SEQ ID NO: 5))
12,B12,+++ (+++ = >2.5 relative activity over WT GLA (SEQ ID NO: 5))
13,B13,++ (++ = >1.5 to 2.5 relative activity over WT GLA (SEQ ID NO: 5))
14,B14,+ (+ = 0.5 to 1.5 relative activity over WT GLA (SEQ ID NO: 5))
15,B15,++ (++ = >1.5 to 2.5 relative activity over WT GLA (SEQ ID NO: 5))
16,B16,++ (++ = >1.5 to 2.5 relative activity over WT GLA (SEQ ID NO: 5))

# Assay: HTP-analysis of supernatants pretreated with base (MUGal hydrolysis)
# Assay type: biochemical
# Conditions: challenge at pH 7.1; activity of the variant/activity of WT GLA (SEQ ID NO: 5); yeast supernatant
# Summary of the method: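 GLA variants secreted from yeast INVSc1; culture supernatants pre-incubated with McIlvaine buffer pH 7.0–8.2 or 200 mM bicarbonate pH 9.1–9.7 at 37° C. for 1–18 h. Residual activity: MUGal (4 mM stock) hydrolysis at pH 4.3–4.8, 37° C., 30–180 min, carbonate quench; fluorescence Ex 355/Em 448 nm.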
row,Molecule,Relative Activity of GLA Variants After Challenge at pH 7.1
1,B1,+++ (+++ = >2.5 relative activity over WT GLA (SEQ ID NO: 5))
2,B2,++ (++ = >1.5 to 2.5 relative activity over WT GLA (SEQ ID NO: 5))
3,B3,+++ (+++ = >2.5 relative activity over WT GLA (SEQ ID NO: 5))
4,B4,+++ (+++ = >2.5 relative activity over WT GLA (SEQ ID NO: 5))
5,B5,+++ (+++ = >2.5 relative activity over WT GLA (SEQ ID NO: 5))
6,B6,++ (++ = >1.5 to 2.5 relative activity over WT GLA (SEQ ID NO: 5))
7,B7,+++ (+++ = >2.5 relative activity over WT GLA (SEQ ID NO: 5))
8,B8,+++ (+++ = >2.5 relative activity over WT GLA (SEQ ID NO: 5))
9,B9,++ (++ = >1.5 to 2.5 relative activity over WT GLA (SEQ ID NO: 5))
10,B10,+ (+ = 0.5 to 1.5 relative activity over WT GLA (SEQ ID NO: 5))
11,B11,++ (++ = >1.5 to 2.5 relative activity over WT GLA (SEQ ID NO: 5))
12,B12,+++ (+++ = >2.5 relative activity over WT GLA (SEQ ID NO: 5))
13,B13,++ (++ = >1.5 to 2.5 relative activity over WT GLA (SEQ ID NO: 5))
14,B14,+ (+ = 0.5 to 1.5 relative activity over WT GLA (SEQ ID NO: 5))
15,B15,++ (++ = >1.5 to 2.5 relative activity over WT GLA (SEQ ID NO: 5))
16,B16,+++ (+++ = >2.5 relative activity over WT GLA (SEQ ID NO: 5))
